Measured values from article doi:10.1101/2022.04.11.487887 (bioRxiv, 2022).
No end group written: not given here.

Experiments:
[1] = biological target: Halo-3C-AU1 reporter tagged human γTuNA, after PreScission (3C) cleavage (human); experiment: co-sedimentation
[2] = biological target: Strep-His-Halo-3C-Xenopus γTuNA I67A (Xenopus laevis); experiment: pull-down
[3] = biological target: Strep-His-Halo-3C-Xenopus γTuNA L70A (Xenopus laevis); experiment: pull-down
[4] = biological target: Strep-His-TEV-HaloTag-3C-Xenopus γTuNA (Xenopus laevis); experiment: pull-down
[5] = biological target: Halo-Xenopus γTuNA-GCN4 L70A (Xenopus laevis | yeast); experiment: SEC
[6] = biological target: Halo-Xenopus γTuNA-GCN4 wildtype (Xenopus laevis | yeast); experiment: SEC
[7] = biological target: Halo-Xenopus γTuNA-GCN4 F75A (Xenopus laevis | yeast); experiment: SEC
[8] = biological target: Halo-Xenopus γTuNA-GCN4 L77A (Xenopus laevis | yeast); experiment: SEC
[9] = biological target: Halo-Xenopus γTuNA-GCN4 I67A (Xenopus laevis | yeast); experiment: SEC
SEC = biological target: the molecule itself; experiment: SEC

“Xenopus γ-tubulin ring complex (γTuRC) (from UniProt P23330 1-451; Q5U4M5 1-72)” gave a percent of purified γTuRCs that lost their γTuNA dimer [1] of 66%, a percent of the wildtype's γTuRC binding [2] of 85% and a percent of the wildtype's γTuRC binding [3] of 50%. For the same molecule, the percent of γ-tubulin signal lost from the extract after one round of depletion [4] was over 75%.

In the case of Halo-Xenopus γTuNA-GCN4 L70A, the stoichiometry N [5] is reported as 2.

Halo-Xenopus γTuNA-GCN4 wildtype gave a stoichiometry N [6] of 2.

Halo-Xenopus γTuNA-GCN4 F75A showed a stoichiometry N [7] of 2.

Halo-Xenopus γTuNA-GCN4 L77A gave a stoichiometry N [8] of 2.

Halo-Xenopus γTuNA-GCN4 I67A was tested, and the stoichiometry N [9] was 2.

B1: Strep-His-TEV-HaloTag-3C-human γTuNA (domain or fragment)
chain: SPTRARNMKDFENQITELKKENFNLKLRIYFLEERMQQEFHGPTEH
modifications: not fully specified (N-terminus)
For B1, the “stoichiometry N” value (SEC) was 2.

B2: Strep-His-TEV-HaloTag-3C-Xenopus γTuNA (domain or fragment, Xenopus laevis)
chain: MKDFEKQIAELKKENFNLKLRIYFLEEQVQQKCDNSSEDLYRMNIE
modifications: not fully specified (N-terminus)
For B2, the “stoichiometry N” value (SEC) was 2.

B3: Strep-His-Halo-3C-Xenopus γTuNA L70A (domain or fragment, Xenopus laevis)
chain: MKDFEKQIAEAKKENFNLKLRIYFLEEQVQQKCDNSSEDLYRMNIE
modifications: not fully specified (N-terminus)
B3: binds (SEC).

B4: Strep-His-Halo-3C-Xenopus γTuNA F63A (domain or fragment, Xenopus laevis)
chain: MKDAEKQIAELKKENFNLKLRIYFLEEQVQQKCDNSSEDLYRMNIE
modifications: not fully specified (N-terminus)
B4: binds (SEC).

B5: Strep-His-TEV-HaloTag-3C-Xenopus γTuNA F75A (domain or fragment, Xenopus laevis)
chain: MKDFEKQIAELKKENANLKLRIYFLEEQVQQKCDNSSEDLYRMNIE
modifications: not fully specified (N-terminus)
B5: binds (SEC).

B6: Strep-His-Halo-3C-Xenopus γTuNA I67A (domain or fragment, Xenopus laevis)
chain: MKDFEKQAAELKKENFNLKLRIYFLEEQVQQKCDNSSEDLYRMNIE
modifications: not fully specified (N-terminus)
B6: binds (SEC).

B7: Strep-His-Halo-3C-Xenopus γTuNA L77A (domain or fragment, Xenopus laevis)
chain: MKDFEKQIAELKKENFNAKLRIYFLEEQVQQKCDNSSEDLYRMNIE
modifications: not fully specified (N-terminus)
B7: binds (SEC).
